The supplement of paper PMC9112550, “Optimization of the antimicrobial peptide Bac7 by deep mutational scanning” (BMC Biology, 2022)

What follows are sequences tested on Escherichia coli TOP10 (assay: shrunken log2 fold change of peptide-encoding DNA abundance (4.5 h post-induction vs induction); higher = less antimicrobial activity (less host growth inhibition)). Settings: time post-induction: 4.5 h; library: site-saturation at positions 5, 18, 19, 20.
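Further: peptides expressed intracellularly from a pBAD plasmid library in pooled LB shake-flask culture, induced with 0.3% L-arabinose, DNA abundance read by NGS, three biological replicates, DESeq2 with apeglm shrinkage.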

Sequence	shrunken log2 fold change
RRIRSRPPRLPRPRPRPDIWPRP	0.00423
RRIRLRPPRLPRPRPRPELMPRP	0.0527
RRIRTRPPRLPRPRPRPYLCPRP	-0.189
RRIRKRPPRLPRPRPRPEEIPRP	0.00253
RRIRKRPPRLPRPRPRPPMKPRP	0.135
RRIRTRPPRLPRPRPRPTDGPRP	-0.0714
RRIRLRPPRLPRPRPRPKHHPRP	-0.296
RRIRARPPRLPRPRPRPERLPRP	0.23
RRIRARPPRLPRPRPRPKNDPRP	0.222
RRIRKRPPRLPRPRPRPWHMPRP	-0.00936
RRIRYRPPRLPRPRPRPSAWPRP	0.199
RRIRIRPPRLPRPRPRPIEIPRP	-0.437
RRIRYRPPRLPRPRPRPNCCPRP	-0.518
RRIRHRPPRLPRPRPRPPKWPRP	0.345
RRIRPRPPRLPRPRPRPSCYPRP	-0.332
RRIRPRPPRLPRPRPRPSMVPRP	-0.376
RRIRRRPPRLPRPRPRPWSRPRP	0.0777
RRIRQRPPRLPRPRPRPPRNPRP	0.765
RRIRVRPPRLPRPRPRPCNHPRP	-0.588
RRIRQRPPRLPRPRPRPIFQPRP	-0.269
RRIRHRPPRLPRPRPRPGFMPRP	0.0294
RRIRWRPPRLPRPRPRPASKPRP	0.294
RRIRLRPPRLPRPRPRPTDLPRP	-0.0813
RRIRDRPPRLPRPRPRPGTRPRP	0.118
RRIRFRPPRLPRPRPRPHQSPRP	-0.114

Sequence	shrunken log2 fold change
RRIRPRPPRLPRPRPRPISQPRP	-0.0721
RRIRARPPRLPRPRPRPQRIPRP	0.177
RRIRPRPPRLPRPRPRPNKTPRP	-0.0733
RRIRIRPPRLPRPRPRPKAMPRP	-0.161
RRIRCRPPRLPRPRPRPEFHPRP	-0.664
RRIRKRPPRLPRPRPRPQPCPRP	0.192
RRIRYRPPRLPRPRPRPTIGPRP	-0.31
RRIRNRPPRLPRPRPRPKVSPRP	0.264
RRIRHRPPRLPRPRPRPSKCPRP	-1.04
RRIRARPPRLPRPRPRPTDWPRP	0.712
RRIRDRPPRLPRPRPRPNERPRP	0.141
RRIRIRPPRLPRPRPRPRPSPRP	0.322
RRIRARPPRLPRPRPRPPMWPRP	0.805
RRIRDRPPRLPRPRPRPCSTPRP	0.248
RRIRGRPPRLPRPRPRPCMCPRP	0.263
RRIRTRPPRLPRPRPRPIVQPRP	0.0444
RRIRQRPPRLPRPRPRPGGMPRP	0.2
RRIRCRPPRLPRPRPRPIPEPRP	0.00841
RRIRDRPPRLPRPRPRPEYRPRP	-0.0165
RRIRPRPPRLPRPRPRPCNWPRP	-0.0706
RRIRPRPPRLPRPRPRPETDPRP	0.229
RRIRYRPPRLPRPRPRPSPAPRP	0.156
RRIRLRPPRLPRPRPRPHWDPRP	0.176
RRIRYRPPRLPRPRPRPNAYPRP	-0.212
RRIRARPPRLPRPRPRPYSQPRP	-0.135

Sequence	shrunken log2 fold change
RRIRLRPPRLPRPRPRPQFQPRP	-0.0476
RRIRQRPPRLPRPRPRPYMLPRP	-0.168
RRIRHRPPRLPRPRPRPMKPPRP	-0.0628
RRIRCRPPRLPRPRPRPSENPRP	-0.154
RRIRKRPPRLPRPRPRPKGDPRP	-0.0351
RRIRWRPPRLPRPRPRPHYWPRP	-0.0704
RRIRKRPPRLPRPRPRPYMIPRP	-0.415
RRIRQRPPRLPRPRPRPAHFPRP	0.464
RRIRFRPPRLPRPRPRPCDRPRP	-0.179
RRIRQRPPRLPRPRPRPQCRPRP	0.0527
RRIRQRPPRLPRPRPRPMNCPRP	-0.0255
RRIRSRPPRLPRPRPRPWVEPRP	-0.214
RRIRPRPPRLPRPRPRPMCYPRP	-0.221
RRIRGRPPRLPRPRPRPWLDPRP	0.0661
RRIRNRPPRLPRPRPRPYGSPRP	-0.0603
RRIRIRPPRLPRPRPRPTWWPRP	0.0347
RRIRCRPPRLPRPRPRPVMDPRP	-0.0102
RRIRKRPPRLPRPRPRPCQDPRP	0.0115
RRIRGRPPRLPRPRPRPQGCPRP	0.394
RRIRQRPPRLPRPRPRPMLMPRP	-0.0108
RRIRWRPPRLPRPRPRPVAHPRP	0.00472
RRIRVRPPRLPRPRPRPGSDPRP	-0.00601
RRIRCRPPRLPRPRPRPPWEPRP	-0.0369
RRIRFRPPRLPRPRPRPTNCPRP	0.0341
RRIRARPPRLPRPRPRPKRWPRP	0.586

Sequence	shrunken log2 fold change
RRIRHRPPRLPRPRPRPGFIPRP	0.043
RRIRSRPPRLPRPRPRPYENPRP	-0.229
RRIRSRPPRLPRPRPRPPVNPRP	-0.489
RRIRPRPPRLPRPRPRPWWVPRP	0.0961
RRIRVRPPRLPRPRPRPWTAPRP	-0.12
RRIRWRPPRLPRPRPRPEHLPRP	-0.138
RRIRPRPPRLPRPRPRPMLKPRP	0.0171
RRIRFRPPRLPRPRPRPWDDPRP	-0.636
RRIRPRPPRLPRPRPRPYTSPRP	-0.261
RRIRYRPPRLPRPRPRPHGRPRP	-0.00992
RRIRYRPPRLPRPRPRPTRYPRP	-0.469
RRIRNRPPRLPRPRPRPEWNPRP	0.0541
RRIRLRPPRLPRPRPRPECPPRP	0.0712
RRIRTRPPRLPRPRPRPKKWPRP	-0.0616
RRIRIRPPRLPRPRPRPTRVPRP	0.167
RRIRGRPPRLPRPRPRPDWVPRP	0.287
RRIRWRPPRLPRPRPRPWPIPRP	0.0793
RRIRPRPPRLPRPRPRPQPCPRP	-0.0627
RRIRGRPPRLPRPRPRPAVQPRP	0.797
RRIRIRPPRLPRPRPRPYGPPRP	-1.06
RRIRDRPPRLPRPRPRPWWEPRP	0.186
RRIRERPPRLPRPRPRPAVSPRP	0.0433
RRIRDRPPRLPRPRPRPLADPRP	0.0597
RRIRYRPPRLPRPRPRPHMLPRP	-1.09
RRIRRRPPRLPRPRPRPEFAPRP	0.129

Sequence	shrunken log2 fold change
RRIRARPPRLPRPRPRPCLSPRP	0.233
RRIRQRPPRLPRPRPRPRVEPRP	-0.0308
RRIRKRPPRLPRPRPRPVVHPRP	0.122
RRIRHRPPRLPRPRPRPGYWPRP	-0.151
RRIRKRPPRLPRPRPRPLARPRP	0.213
RRIRRRPPRLPRPRPRPVFPPRP	0.488
RRIRGRPPRLPRPRPRPQEIPRP	0.427
RRIRMRPPRLPRPRPRPNQMPRP	0.217
RRIRGRPPRLPRPRPRPAHKPRP	0.551
RRIRRRPPRLPRPRPRPEFKPRP	0.0599
RRIRHRPPRLPRPRPRPRRLPRP	-0.0808
RRIRQRPPRLPRPRPRPLGIPRP	-0.381
RRIRARPPRLPRPRPRPITCPRP	-0.119
RRIRLRPPRLPRPRPRPFGSPRP	-0.0744
RRIRIRPPRLPRPRPRPWNAPRP	0.0267
RRIRSRPPRLPRPRPRPVAFPRP	0.0876
RRIRPRPPRLPRPRPRPNITPRP	-0.293
RRIRCRPPRLPRPRPRPREFPRP	0.339
RRIRIRPPRLPRPRPRPYDKPRP	-0.224
RRIRWRPPRLPRPRPRPNMDPRP	0.0467
RRIRIRPPRLPRPRPRPYDEPRP	-0.338
RRIRPRPPRLPRPRPRPWSQPRP	0.0452
RRIRMRPPRLPRPRPRPHFMPRP	-0.127
RRIRPRPPRLPRPRPRPKINPRP	-0.32
RRIRIRPPRLPRPRPRPLETPRP	-0.0471

Sequence	shrunken log2 fold change
RRIRYRPPRLPRPRPRPNSRPRP	-0.156
RRIRHRPPRLPRPRPRPEDLPRP	0.172
RRIRVRPPRLPRPRPRPQGPPRP	0.107
RRIRDRPPRLPRPRPRPHKKPRP	-0.00887
RRIRMRPPRLPRPRPRPSEFPRP	-0.143
RRIRCRPPRLPRPRPRPPEKPRP	0.299
RRIRHRPPRLPRPRPRPRYEPRP	-0.0765
RRIRMRPPRLPRPRPRPGLNPRP	0.223
RRIRNRPPRLPRPRPRPCEYPRP	-0.0196
RRIRSRPPRLPRPRPRPNWEPRP	0.015
RRIRFRPPRLPRPRPRPMQLPRP	0.0166
RRIRCRPPRLPRPRPRPHPCPRP	-0.579
RRIRVRPPRLPRPRPRPSCMPRP	-0.136
RRIRERPPRLPRPRPRPFYEPRP	-0.498
RRIRCRPPRLPRPRPRPWLLPRP	-0.381
RRIRGRPPRLPRPRPRPDITPRP	1.01
RRIRMRPPRLPRPRPRPHHNPRP	-0.533
RRIRGRPPRLPRPRPRPWITPRP	-0.204
RRIRGRPPRLPRPRPRPKPVPRP	0.985
RRIRWRPPRLPRPRPRPKNIPRP	-0.159
RRIRKRPPRLPRPRPRPSLIPRP	-0.0338
RRIRWRPPRLPRPRPRPHKSPRP	0.0767
RRIRIRPPRLPRPRPRPRFQPRP	-0.0961
RRIRCRPPRLPRPRPRPHNQPRP	-0.565
RRIRCRPPRLPRPRPRPRHQPRP	0.18
